From publication PMC4759655 (Immunity, 2016)

Molecular target: the molecule itself
Experiment: cross-linking

B1: CD45 protein tyrosine phosphatase (receptor, UniProt P06800 26-1293, looked up)
chain: QTPTPSDELSTTENALLLPQSDPLPARTTESTPPSISERGNGSSETTYHPGVLSTLLPHLSPQPDSQTPSAGGADTQTFSSQADNPTLTPAPGGGTDPPGVPGERTVPGTIPADTAFPVDTPSLARNSSAASPTHTSNVSTTDISSGASLTTLTPSTLGLASTDPPSTTIATTTKQTCAAMFGNITVNYTYESSNQTFKADLKDVQNAKCGNEDCENVLNNLEECSQIKNISVSNDSCAPATTIDLYVPPGTDKFSLHDCTPKEKANTSICLEWKTKNLDFRKCNSDNISYVLHCEPENNTKCIRRNTFIPERCQLDNLRAQTNYTCVAEILYRGVKLVKNVINVQTDLGIPETPKPSCGDPAARKTLVSWPEPVSKPESASKPHGYVLCYKNNSEKCKSLPNNVTSFEVESLKPYKYYEVSLLAYVNGKIQRNGTAEKCNFHTKADRPDKVNGMKTSRPTDNSINVTCGPPYETNGPKTFYILVVRSGGSFVTKYNKTNCQFYVDNLYYSTDYEFLVSFHNGVYEGDSVIRNESTNFNAKALIIFLVFLIIVTSIALLVVLYKIYDLRKKRSSNLDEQQELVERDDEKQLMDVEPIHSDILLETYKRKIADEGRLFLAEFQSIPRVFSKFPIKDARKPHNQNKNRYVDILPYDYNRVELSEINGDAGSTYINASYIDGFKEPRKYIAAQGPRDETVDDFWRMIWEQKATVIVMVTRCEEGNRNKCAEYWPSMEEGTRAFKDIVVTINDHKRCPDYIIQKLNVAHKKEKATGREVTHIQFTSWPDHGVPEDPHLLLKLRRRVNAFSNFFSGPIVVHCSAGVGRTGTYIGIDAMLEGLEAEGKVDVYGYVVKLRRQRCLMVQVEAQYILIHQALVEYNQFGETEVNLSELHSCLHNMKKRDPPSDPSPLEAEYQRLPSYRSWRTQHIGNQEENKKKNRNSNVVPYDFNRVPLKHELEMSKESEPESDESSDDDSDSEETSKYINASFVMSYWKPEMMIAAQGPLKETIGDFWQMIFQRKVKVIVMLTELVNGDQEVCAQYWGEGKQTYGDMEVEMKDTNRASAYTLRTFELRHSKRKEPRTVYQYQCTTWKGEELPAEPKDLVSMIQDLKQKLPKASPEGMKYHKHASILVHCRDGSQQTGLFCALFNLLESAETEDVVDVFQVVKSLRKARPGVVCSYEQYQFLYDIIASIYPAQNGQVKKTNSQDKIEFHNEVDGGKQDANCVRPDGPLNKAQEDSRGVGTPEPTNSAEEPEHAANGSASPAPTQSS
stoichiometry N: 2
